From patent publication US20240166760A1 (UNIVERSITY OF PITTSBURGH OF THE COMMONWEALTH SYSTEM OF …, published 2024)
Positions count from the first letter of the chain named.

Tests used:
[1] = biological target: T1, Human IgG1 Fc-fused CEACAM5 A3B3 (residues 501-682) (human, UniProt P06731 501-682); experiment: SPR (BIAcore)
T1 construct: Expressed in Freestyle HEK cells and N-glycosylated; also called CEACAM5 A3B3-Fc; A3B3-Fc; not shown: human immunoglobulin 1 Fc region (hIgG1 Fc)
T1 sequence: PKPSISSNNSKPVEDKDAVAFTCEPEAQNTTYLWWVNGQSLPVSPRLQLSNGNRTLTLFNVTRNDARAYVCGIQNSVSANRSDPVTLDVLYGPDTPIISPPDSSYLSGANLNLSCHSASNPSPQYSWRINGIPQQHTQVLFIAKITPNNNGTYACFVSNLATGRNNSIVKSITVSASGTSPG

[2] = biological target: T2, Fc-fused CEACAM5 A3B3 domain N580Q mutant (human, UniProt P06731 501-682); experiment: indirect ELISA
T2 construct: N-glycosylation site mutant of A3B3-Fc; not shown: human IgG1 Fc carrier and its junction to A3B3
T2 chain: T1 sequence with N80Q
Method: Binding and specificity of scFv, Fab, or IgG to CEACAM related proteins were analyzed through indirect ELISA. Briefly, Fc-fused CEACAM5 polypeptides, CEACAM6 polypeptides, extra-cellular domain of CEACAM5 (R&D systems, 4128-CM), CEACAM6 (R&D systems, 3934-CM), or cynomolgus CEACAM5 (Sino biological, 90891-C08H) was coated on a 96 well plate (Corning, 3690) at 200 ng/well (50 μL volume) in PBS for 2 hours at room temperature. Blocking was carried out with 3% BSA in PBS for overnight at 4° C. Next day, various concentration of scFv, Fab, or IgG was treated to antigen coated plates and incubated for 1 hour at room temperature. After washing three times, anti-FLAG mouse antibody (M2 clone)-HRP conjugated (Sigma, A8592, 1:3000 dilution) or anti-human kappa goat antibody-HRP conjugated (Invitrogen, A18853, 1:3000 dilution) was treated for binding detection. Same volume of TMB (Thermo, PI34028) was added as a substrate, and then enzymatic reaction was stopped by adding of 2N sulfonic acid. The monomeric Fc fused-CD16a (Fc γRIIIa), CD64 (Fc γRIa) and CD32 (Fc γRIIa) were obtained from Prof. Wei Li (University of Pittsburgh, PA) and used for Fc gamma receptor (FcγR) binding test. […]

[3] = biological target: T3, Human IgG1 Fc-fused CEACAM5 A1B1 (residues 145-322) (human, UniProt P06731 145-322); experiment: indirect ELISA / BIAcore
T3 construct: also called CEACAM5 A1B1-Fc; A1B1 domains of CEACAM5; not shown: human immunoglobulin 1 Fc region (hIgG1 Fc)
T3 sequence: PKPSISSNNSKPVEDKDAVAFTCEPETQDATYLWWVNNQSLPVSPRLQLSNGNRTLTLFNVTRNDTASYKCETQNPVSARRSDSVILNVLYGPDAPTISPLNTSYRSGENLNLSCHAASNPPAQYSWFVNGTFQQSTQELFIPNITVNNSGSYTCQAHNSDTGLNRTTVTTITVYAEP

[4] = biological target: T4, Human IgG1 Fc-fused CEACAM5 A2B2 (residues 323-500) (human, UniProt P06731 323-500); experiment: indirect ELISA / BIAcore
T4 construct: also called CEACAM5 A2B2-Fc; A2B2 domains of CEACAM5; not shown: human immunoglobulin 1 Fc region (hIgG1 Fc)
T4 chain: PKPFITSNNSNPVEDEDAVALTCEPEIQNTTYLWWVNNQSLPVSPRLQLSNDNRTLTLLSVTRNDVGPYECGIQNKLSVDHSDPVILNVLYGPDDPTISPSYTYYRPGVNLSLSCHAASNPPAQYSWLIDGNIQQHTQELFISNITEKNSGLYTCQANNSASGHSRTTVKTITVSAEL

[5] = biological target: T1, Human IgG1 Fc-fused CEACAM5 A3B3 …; experiment: indirect ELISA, antigen coated on plate
Method: Binding and specificity of scFv, Fab, or IgG to CEACAM related proteins were analyzed through indirect ELISA. Briefly, Fc-fused CEACAM5 polypeptides, CEACAM6 polypeptides, extra-cellular domain of CEACAM5 (R&D systems, 4128-CM), CEACAM6 (R&D systems, 3934-CM), or cynomolgus CEACAM5 (Sino biological, 90891-C08H) was coated on a 96 well plate (Corning, 3690) at 200 ng/well (50 μL volume) in PBS for 2 hours at room temperature. Blocking was carried out with 3% BSA in PBS for overnight at 4° C. Next day, various concentration of scFv, Fab, or IgG was treated to antigen coated plates and incubated for 1 hour at room temperature. After washing three times, anti-FLAG mouse antibody (M2 clone)-HRP conjugated (Sigma, A8592, 1:3000 dilution) or anti-human kappa goat antibody-HRP conjugated (Invitrogen, A18853, 1:3000 dilution) was treated for binding detection. Same volume of TMB (Thermo, PI34028) was added as a substrate, and then enzymatic reaction was stopped by adding of 2N sulfonic acid. The monomeric Fc fused-CD16a (Fc γRIIIa), CD64 (Fc γRIa) and CD32 (Fc γRIIa) were obtained from Prof. Wei Li (University of Pittsburgh, PA) and used for Fc gamma receptor (FcγR) binding test.

[6] = biological target: T5, human CEACAM1 on Freestyle 293F cells (human, UniProt P13688 35-526); experiment: flow cytometry on transfected HEK293F cells
T5 construct: whole, on cells; Gene carries a FLAG-tag at the C-terminal; Transiently expressed
T5 sequence (looked up): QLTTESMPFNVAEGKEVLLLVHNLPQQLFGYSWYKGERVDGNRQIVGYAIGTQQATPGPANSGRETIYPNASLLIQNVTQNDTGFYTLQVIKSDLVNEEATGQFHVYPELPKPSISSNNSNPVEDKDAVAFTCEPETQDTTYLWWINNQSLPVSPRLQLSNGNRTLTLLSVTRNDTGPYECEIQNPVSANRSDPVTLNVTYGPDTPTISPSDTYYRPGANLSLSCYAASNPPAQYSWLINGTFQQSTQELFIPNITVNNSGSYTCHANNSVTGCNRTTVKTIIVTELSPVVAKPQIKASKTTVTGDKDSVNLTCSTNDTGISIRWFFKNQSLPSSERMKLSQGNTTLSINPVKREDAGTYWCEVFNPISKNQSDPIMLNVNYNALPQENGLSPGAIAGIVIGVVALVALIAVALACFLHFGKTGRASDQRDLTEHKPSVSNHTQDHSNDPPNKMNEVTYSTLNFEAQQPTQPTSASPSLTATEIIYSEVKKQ
Method: (§1) To determine the cell surface expression levels of CEACAM5 or CEACAM family proteins, the cells were stained with PE-conjugated anti-CEACAM5 IgG1 (Miltenyi Biotec, 130-114-217) or PE-conjugated anti-FLAG mouse antibody (Miltenyi Biotec, 130-101-576). To confirm cell surface binding of selected antibodies, cells were treated with a hIgG1 having the CDRs of Clone #1, a hIgG1 having the CDRs of Clone #2, or the Clone #1 Fab for 1 hour at 4° C. and then stained with Alexa647-conjugated goat anti-human IgG (Invitrogen, A21445) or FITC conjugated-goat anti-human kappa light chain (Invitrogen, A18854) for 0.5 hours at 4° C. For the internalization assays, cells (1×10⁵ cells/well in 96-well plate) were treated with Alexa488-labeled antibodies for durations between 0 and 30 hours. After incubation of antibodies, cells were washed with cold PBS, and then the remained cell surface binding antibodies were analyzed using Alexa488 fluorescence. For CAR expression on anti-CEACAM5 CAR-T cells, CD4⁺ T or CD8⁺ T cells were gated using APC-conjugated anti-human CD4 antibody (ebioscience, 17-0049-42) and eFluor450-conjugated anti-human CD8 antibody (ebioscience, 48-0088-42), and CAR expression was examined using FITC-labeled recombinant Protein L (Acrobiosystems, RPL-PF141).

[7] = biological target: T6, human CEACAM6 on Freestyle 293F cells (human, UniProt P40199 35-320); experiment: flow cytometry on transfected HEK293F cells
T6 construct: whole, on cells; Gene carries a FLAG-tag at the C-terminal; Transiently expressed; also called CD66c
T6 sequence (looked up): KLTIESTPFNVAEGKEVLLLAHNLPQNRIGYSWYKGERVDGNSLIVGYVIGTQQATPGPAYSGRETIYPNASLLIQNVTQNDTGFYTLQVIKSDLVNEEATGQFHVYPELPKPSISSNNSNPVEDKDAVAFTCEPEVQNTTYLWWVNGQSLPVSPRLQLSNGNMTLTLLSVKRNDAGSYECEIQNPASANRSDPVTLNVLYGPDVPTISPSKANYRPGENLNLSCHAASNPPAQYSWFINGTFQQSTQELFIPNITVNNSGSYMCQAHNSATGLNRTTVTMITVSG
Method: as §1

[8] = biological target: T7, human CEACAM7 on Freestyle 293F cells (human, UniProt Q14002 36-242); experiment: flow cytometry on transfected HEK293F cells
T7 construct: whole, on cells; Gene carries a FLAG-tag at the C-terminal; Transiently expressed
T7 sequence (looked up): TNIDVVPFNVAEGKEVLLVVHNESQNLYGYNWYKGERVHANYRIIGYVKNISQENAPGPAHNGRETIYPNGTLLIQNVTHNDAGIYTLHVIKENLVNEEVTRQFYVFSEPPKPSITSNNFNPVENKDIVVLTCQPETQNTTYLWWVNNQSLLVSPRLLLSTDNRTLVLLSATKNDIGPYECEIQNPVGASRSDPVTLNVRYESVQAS
Method: as §1

[9] = biological target: T8, human CEACAM8 on Freestyle 293F cells (human, UniProt P31997 35-320); experiment: flow cytometry on transfected HEK293F cells
T8 construct: whole, on cells; Gene carries a FLAG-tag at the C-terminal; Transiently expressed
T8 sequence (looked up): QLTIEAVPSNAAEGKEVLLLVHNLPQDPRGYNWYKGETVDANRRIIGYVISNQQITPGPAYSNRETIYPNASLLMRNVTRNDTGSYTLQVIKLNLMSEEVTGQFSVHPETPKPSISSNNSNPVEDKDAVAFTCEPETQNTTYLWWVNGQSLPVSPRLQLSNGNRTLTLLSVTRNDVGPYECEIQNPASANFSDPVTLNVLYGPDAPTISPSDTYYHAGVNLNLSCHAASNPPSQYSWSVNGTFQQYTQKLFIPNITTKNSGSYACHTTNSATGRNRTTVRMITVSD
Method: as §1

[10] = biological target: T9, human CEACAM16 on Freestyle 293F cells (human, UniProt Q2WEN9 21-425); experiment: flow cytometry on transfected HEK293F cells
T9 construct: whole, on cells; Gene carries a FLAG-tag at the C-terminal; Transiently expressed
T9 sequence (looked up): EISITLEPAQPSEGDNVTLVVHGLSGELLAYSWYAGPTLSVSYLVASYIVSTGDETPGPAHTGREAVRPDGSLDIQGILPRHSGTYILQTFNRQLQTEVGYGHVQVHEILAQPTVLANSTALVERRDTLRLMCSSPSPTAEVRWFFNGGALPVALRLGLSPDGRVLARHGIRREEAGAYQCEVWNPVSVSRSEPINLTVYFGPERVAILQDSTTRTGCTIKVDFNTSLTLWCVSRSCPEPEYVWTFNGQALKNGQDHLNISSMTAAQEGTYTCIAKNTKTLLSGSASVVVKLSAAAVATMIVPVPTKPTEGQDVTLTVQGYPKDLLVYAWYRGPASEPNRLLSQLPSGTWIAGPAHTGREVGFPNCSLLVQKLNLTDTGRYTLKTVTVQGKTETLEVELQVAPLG
Method: as §1

[11] = biological target: T10, human CEACAM18 on Freestyle 293F cells (human, UniProt A8MTB9 31-384); experiment: flow cytometry on transfected HEK293F cells
T10 construct: whole, on cells; Gene carries a FLAG-tag at the C-terminal; Transiently expressed
T10 sequence (looked up): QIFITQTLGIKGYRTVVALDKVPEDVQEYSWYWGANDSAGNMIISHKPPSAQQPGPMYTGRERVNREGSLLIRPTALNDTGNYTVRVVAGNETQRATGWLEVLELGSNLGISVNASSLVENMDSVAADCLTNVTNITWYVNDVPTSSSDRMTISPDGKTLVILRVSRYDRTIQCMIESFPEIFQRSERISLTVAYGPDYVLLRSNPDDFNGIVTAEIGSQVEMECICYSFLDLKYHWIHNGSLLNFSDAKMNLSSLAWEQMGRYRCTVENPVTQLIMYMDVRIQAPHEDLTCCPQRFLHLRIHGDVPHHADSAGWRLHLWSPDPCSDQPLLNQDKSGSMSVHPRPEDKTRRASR
Method: as §1

[12] = biological target: T11, human CEACAM20 on Freestyle 293F cells (human, UniProt Q6UY09 31-596); experiment: flow cytometry on transfected HEK293F cells
T11 construct: whole, on cells; Gene carries a FLAG-tag at the C-terminal; Transiently expressed
T11 sequence (Q6UY09 31-596): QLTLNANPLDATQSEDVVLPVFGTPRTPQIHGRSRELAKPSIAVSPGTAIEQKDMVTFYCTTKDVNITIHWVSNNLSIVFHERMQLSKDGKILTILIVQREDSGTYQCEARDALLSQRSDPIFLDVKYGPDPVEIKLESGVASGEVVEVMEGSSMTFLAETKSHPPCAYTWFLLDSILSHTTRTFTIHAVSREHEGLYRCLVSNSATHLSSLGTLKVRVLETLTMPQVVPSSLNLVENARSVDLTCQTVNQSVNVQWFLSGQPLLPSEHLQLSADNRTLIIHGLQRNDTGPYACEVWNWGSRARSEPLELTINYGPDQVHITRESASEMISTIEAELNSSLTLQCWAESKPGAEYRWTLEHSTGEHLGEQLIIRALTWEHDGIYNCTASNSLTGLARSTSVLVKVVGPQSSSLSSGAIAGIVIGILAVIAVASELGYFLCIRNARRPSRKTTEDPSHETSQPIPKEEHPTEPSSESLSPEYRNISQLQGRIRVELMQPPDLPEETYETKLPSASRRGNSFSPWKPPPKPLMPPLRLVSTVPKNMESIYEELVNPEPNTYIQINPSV
Method: as §1

[13] = biological target: T12, human CEACAM21 on Freestyle 293F cells (human, UniProt Q3KPI0 35-293); experiment: flow cytometry on transfected HEK293F cells
T12 construct: whole, on cells; Gene carries a FLAG-tag at the C-terminal; Transiently expressed
T12 sequence (Q3KPI0 35-293): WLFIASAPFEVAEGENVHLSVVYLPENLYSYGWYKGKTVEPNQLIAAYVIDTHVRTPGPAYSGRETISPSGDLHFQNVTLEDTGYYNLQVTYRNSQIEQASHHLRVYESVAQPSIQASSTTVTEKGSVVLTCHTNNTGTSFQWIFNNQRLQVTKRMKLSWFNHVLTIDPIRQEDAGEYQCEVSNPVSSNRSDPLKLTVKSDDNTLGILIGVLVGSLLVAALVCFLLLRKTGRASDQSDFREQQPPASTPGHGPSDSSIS
Method: as §1

[14] = biological target: T13, Human IgG1 Fc-fused CEACAM5 A3B3 (residues 501-682) (UniProt P06731 501-682); experiment: SPR (Biacore)
T13 chain: T1 sequence

B1: Clone #1 Fab (1G9 Fab) (Fab, V domains shown)
VH: QVQLVESGGGLVKPGGSLRLSCAASGFTFSDYYMSWIRQAPGKGLEWVSYISSSGSTIYYADSVKGRFTISRDNAKNSLYLQMNSLRAEDTAVYYCARIGRYSYGLRSYYYYGMDVWGQGTTVTVSS
VL: DIQMTQSPSSLSASVGDRVTITCRASQSISSYLNWYQQKPGKAPKLLIYAASSLQSGVPSRFSGSGSGTDFTLTISSLQPEDFGVYYCMQALQTPVTFGQGTRLEIKR
notes: Human Fab from a phage library (IGHV3-11 / IGKV1-39 frameworks), made in E. coli and purified on Ni-NTA
[1]
  Kd: 3 nM
[2]
  binding result: binds
[3]
  binding result: no binding
[4]
  binding result: no binding
[5]
  EC50: ~6 nM
[6]
  binding result: no binding
[7]
  binding result: no binding
[8]
  binding result: no binding
[9]
  binding result: no binding
[10]
  binding result: no binding
[11]
  binding result: no binding
[12]
  binding result: no binding
[13]
  binding result: no binding
[14]
  Kd: 1.91 nM
